± gives the standard deviation of the averaged measurements.
System: Saccharomyces cerevisiae
Assay: protein stability index of tFT-peptide fusion (C-terminal peptide) (PSI (0-1 scale)); higher = more stable (slower turnover)
Settings: temperature: 30 C
Method: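 MPS profiling in S. cerevisiae of the yeast C-terminome library: the last 12 aa of each annotated ORF are fused to the C-terminus of a sfGFP-mCherry timer, after a GGGS linker. Cells are FACS-sorted into 8 mCherry/sfGFP bins and deep-sequenced. PSI runs from 0 (unstable) to 1 (stable); wild type and das1Δ backgrounds, two technical replicates each.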

[1] = genetic background: das1 deletion

Sequence | protein stability index [1] | protein stability index (genetic background: wild type)
LSVIYMGWSPFY [TEL1 C-terminal 12 aa] | 0.716 ± 0.018 | 0.773 ± 0.032
LSVTLGEGKYHH [CSG2 C-terminal 12 aa] | 0.685 ± 0.03 | 0.686 ± 0.034
LTVLCVILGYVL [UTR2 C-terminal 12 aa] | 0.5761 ± 0.00066 | 0.645 ± 0.048
LTWSLAYSGAFS [ACF2 C-terminal 12 aa] | 0.7217 ± 0.0012 | 0.686 ± 0.013
LVIDQITQLRQQ [COG1 C-terminal 12 aa] | 0.6966 ± 0.0015 | 0.6158 ± 0.0047
LVIKRRGFEINT [PET122 C-terminal 12 aa] | 0.66 ± 0.015 | 0.721 ± 0.043
LYGKYNYAAQKV [YDL124W C-terminal 12 aa] | 0.692 ± 0.013 | 0.333 ± 0.014
LYKRWVPGRNRD [SEN2 C-terminal 12 aa] | 0.696 ± 0.0095 | 0.696 ± 0.034
LYVTVFNRSDEA [AVT7 C-terminal 12 aa] | 0.6773 ± 0.0036 | 0.6811 ± 0.0037
MEDILDETTELD [ATG40 C-terminal 12 aa] | 0.7155 ± 0.0025 | 0.715 ± 0.072
MEKENSGLIAFS [HOS2 C-terminal 12 aa] | 0.7089 ± 0.0061 | 0.7064 ± 0.0059
MELWYTCLSKNL [YCR050C C-terminal 12 aa] | 0.694 ± 0.048 | 0.671 ± 0.034
MERRARQQRGQD [MND2 C-terminal 12 aa] | 0.71114 ± 0.0003 | 0.717 ± 0.046
MFGVHDKSVIIE [NSE5 C-terminal 12 aa] | 0.692 ± 0.058 | 0.7 ± 0.032
MFKFNVHKKSKV [TAD2 C-terminal 12 aa] | 0.72 ± 0.015 | 0.758 ± 0.048
MGDEYVSSDEDF [HEF3 C-terminal 12 aa] | 0.7279 ± 0.0024 | 0.686 ± 0.054
MGISSNSFQGVN [KDX1 C-terminal 12 aa] | 0.70379 ± 8.7e-05 | 0.6626 ± 0.0032
MGVFILFLDYVG [UFE1 C-terminal 12 aa] | 0.277 ± 0.032 | 0.314 ± 0.013
MKGPAALWDVQF [ARP9 C-terminal 12 aa] | 0.724 ± 0.012 | 0.744 ± 0.044
MKRSASYTGAKV [TPS2 C-terminal 12 aa] | 0.7 ± 0.02 | 0.709 ± 0.043
MLCTLTGYQNND [NUP192 C-terminal 12 aa] | 0.7282 ± 0.0051 | 0.685 ± 0.017

Sequence | protein stability index [1] | protein stability index (genetic background: wild type)
MPGGMPGMPGMM [HSP60 C-terminal 12 aa] | 0.7 ± 0.00077 | 0.709 ± 0.0041
MQRVSTQHEKET [PMA1 C-terminal 12 aa] | 0.715 ± 0.0091 | 0.698 ± 0.022
MRLTHKSKKKMK [SUE1 C-terminal 12 aa] | 0.72 ± 0.026 | 0.695 ± 0.0075
MSKLGLIPKDFQ [HIS4 C-terminal 12 aa] | 0.6931 ± 0.0056 | 0.707 ± 0.036
MSLLGLVPVDRM [MSR1 C-terminal 12 aa] | 0.696 ± 0.00089 | 0.688 ± 0.023
MTGILKDYSHRV [TFA2 C-terminal 12 aa] | 0.715 ± 0.0083 | 0.723 ± 0.063
MVNEWIHGGFSL [PRC1 C-terminal 12 aa] | 0.73 ± 0.025 | 0.702 ± 0.019
MYGLGIRDCCIM [RCY1 C-terminal 12 aa] | 0.7921 ± 0.0075 | 0.776 ± 0.088
NAIKNWTGVNVK [MIC26 C-terminal 12 aa] | 0.7 ± 0.0014 | 0.695 ± 0.0088
NAKKGSKIEEIE [PTC3 C-terminal 12 aa] | 0.6731 ± 0.0047 | 0.6656 ± 0.0058
NCIETFVAEKTT [SRB6 C-terminal 12 aa] | 0.679 ± 0.014 | 0.669 ± 0.0071
NDGTFLDEVTKN [OPI10 C-terminal 12 aa] | 0.6922 ± 0.0066 | 0.687 ± 0.03
NDKGEQVVGGNE [TMA16 C-terminal 12 aa] | 0.663 ± 0.042 | 0.717 ± 0.04
NDLITYMTKAAK [CYC7 C-terminal 12 aa] | 0.722 ± 0.031 | 0.756 ± 0.14
NEDSMEIDDDLD [HSP104 C-terminal 12 aa] | 0.6988 ± 0.0014 | 0.665 ± 0.021
NEKENSLSLSRL [MGT1 C-terminal 12 aa] | 0.7183 ± 0.0017 | 0.752 ± 0.058
NELRMSSSSLTN [VHS1 C-terminal 12 aa] | 0.6718 ± 0.0013 | 0.693 ± 0.0083
NERGLSSNYQTI [FMP42 C-terminal 12 aa] | 0.7217 ± 0.0025 | 0.6736 ± 0.0013
NGKTIKDATDNK [COX19 C-terminal 12 aa] | 0.669 ± 0.015 | 0.6957 ± 0.0059
NGRYIDTEFESM [LCB4 C-terminal 12 aa] | 0.6854 ± 0.0012 | 0.681 ± 0.022

Source: the supplement of paper PMC10724198
